Results reported in patent US20250215089A1 (HARBOUR BIOMED SHANGHAI, published 2025).

Columns and labels:
cynomolgus monkey PD-L1 = target: T1, cynomolgus monkey PD-L1 (cynomolgus monkey); assay: FACS, CHO-K1/cyPD-L1 cells
T1 construct: whole, on cells; also called cyPD-L1
Protocol: (§1) Specifically, the cells expressing PD-L1 were digested and resuspended in PBS buffer containing 2% BSA. The cells were adjusted to a cell density of 1×10⁶ cells/mL, respectively. The cells were seeded in a 96-well V-bottom plate (Corning, #3894) at 100 μL/well, and the antibody to be tested at 2×final concentration with 4-fold concentration gradient dilution was then added at 100 μL/well. The cells were incubated at 4° C. for 2 hours in the dark. After the incubation, the cells were rinsed twice by adding pre-chilled PBS containing 2% BSA at 100 μL/well, and centrifuged at 500 g at 4° C. for 5 minutes, and the supernatant was discarded. […] The cells were washed twice by adding pre-chilled PBS containing 2% BSA at 100 µL/well, and centrifuged at 500 g at 4° C. for 5 minutes, and the supernatant was discarded. Finally, the cells were resuspended in pre-chilled PBS buffer containing 2% BSA at 200 μL/well. The fluorescence signal values were read using a BD FACS CANTOII flow cytometer or ACEA NovoCyte flow cytometer, and the data were processed and analyzed using FlowJo v10 software (FlowJo, LLC).

human PD-L1 [1] = target: T2, human PD-L1 (human, UniProt Q9NZQ7 19-290); assay: cell-based or functional assay
human CD40 [2] = target: T3, human CD40 (human, UniProt P25942 21-277); assay: FACS, CHO-K1/hCD40 cells
T3 construct: whole, on cells; also called hCD40; TNFRSF5
Protocol: (§2) The cells were incubated at 4° C. for 1 hours in the dark. After the incubation, the cells were rinsed twice by adding pre-chilled PBS at 100 μL/well, and centrifuged at 500 g at 4° C. for 5 minutes, and the supernatant was discarded. Then, a fluorescent secondary antibody (goat anti-human IgG (H+L) secondary antibody, Alexa Fluor® 488 conjugate, Invitrogen, #A11013, 1:1000 dilution) was added at 100 μL/well, and the cells were incubated at 4° C. for 30 minutes in the dark. The cells were washed twice with pre-chilled PBS at 200 μL/well, and centrifuged at 500 g at 4° C. for 5 minutes, and the supernatant was discarded. Finally, the cells were resuspended in pre-chilled PBS at 200 μL/well. The fluorescence signal values were read using a BD FACS CANTOII flow cytometer or ACEA NovoCyte flow cytometer, and the data were processed and analyzed using FlowJo v10 software (FlowJo, LLC).

cynomolgus monkey CD40 = target: T4, cynomolgus monkey CD40 (cynomolgus monkey); assay: FACS, CHO-K1/cyCD40 cells
T4 construct: whole, on cells; also called cyCD40
Protocol: as §2

human PD-L1 [3] = target: T2, human PD-L1; assay: FACS, CHO-K1/hPD-L1 cells
Protocol: as §1

human CD40 [4] = target: T3, human CD40; assay: cell-based or functional assay
human PD-L1 [5] = target: T2, human PD-L1; assay: FACS, NCI-H226 cells
Protocol: as §1

human CD40 [6] = target: T3, human CD40; assay: FACS, Raji cells
Protocol: as §2

T2 sequence (Q9NZQ7 19-290): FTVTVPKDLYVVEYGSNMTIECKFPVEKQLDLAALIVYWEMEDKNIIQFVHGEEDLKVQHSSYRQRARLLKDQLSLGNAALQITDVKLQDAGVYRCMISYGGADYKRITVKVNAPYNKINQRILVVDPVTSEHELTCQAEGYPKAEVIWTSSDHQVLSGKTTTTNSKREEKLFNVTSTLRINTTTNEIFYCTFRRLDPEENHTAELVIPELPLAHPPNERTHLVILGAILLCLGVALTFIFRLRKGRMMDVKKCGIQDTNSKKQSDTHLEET
T3 sequence (P25942 21-277): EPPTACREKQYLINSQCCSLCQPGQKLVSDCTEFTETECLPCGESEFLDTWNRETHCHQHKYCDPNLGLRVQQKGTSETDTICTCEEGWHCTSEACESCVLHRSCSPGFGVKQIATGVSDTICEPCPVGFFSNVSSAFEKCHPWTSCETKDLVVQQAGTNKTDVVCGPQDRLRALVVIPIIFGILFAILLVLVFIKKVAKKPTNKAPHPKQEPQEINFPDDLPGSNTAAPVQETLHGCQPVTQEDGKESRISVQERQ

EC50 (cynomolgus monkey PD-L1) | Maximum MFI (cynomolgus monkey PD-L1) | EC50, Jurkat-NFAT-hPD1 reporter (human PD-L1 [1]) | Maximum (RLU), Jurkat-NFAT-hPD1 reporter (human PD-L1 [1]) | EC50 (human CD40 [2]) | Maximum MFI (human CD40 [2]) | EC50 (cynomolgus monkey CD40) | Maximum MFI (cynomolgus monkey CD40) | EC50 (human PD-L1 [3]) | Maximum MFI (human PD-L1 [3]) | EC50, HEK293-hCD40-NFκB reporter, + CHO-K1 (human CD40 [4]) | EC50, HEK293-hCD40-NFκB reporter, + CHO-K1/hPD-L1 (human CD40 [4]) | Maximum (RLU), HEK293-hCD40-NFκB reporter, + CHO-K1 (human CD40 [4]) | Maximum (RLU), HEK293-hCD40-NFκB reporter, + CHO-K1/hPD-L1 (human CD40 [4]) | EC50 (human PD-L1 [5]) | Maximum MFI (human PD-L1 [5]) | EC50 (human CD40 [6]) | Maximum MFI (human CD40 [6]) | Binder
0.622 nM | 4540 MFI | 0.359 nM | 4920 RLU | 2.53 nM | 18900 MFI | 3.37 nM | 76200 MFI | 0.96 nM | 19600 MFI | 0.144 nM | 0.0106 nM | 24500 RLU | 31400 RLU | 0.389 nM | 870 MFI | 1.24 nM | 7360 MFI | PR006919 (bispecific antibody, human IgG1, kappa, VH of PR006246 (PD-L1) - GS_5 - heavy chain of CD40 IgG PR006496; human IgG1 L234A/L235A/G237A; also called PD-L1×CD40) heavy: QVQLVESGGGVVQPGMSLRLSCAASGFDFSSYGMYWVRQAPGKGQEWVASIRYTGTEKHYADSVKGRFTISRDNSKNTLYLEMNSLRVEDTAVYYCAKNRAIFGVIPDDSDIRGQGTMVTVSSGGGGSQVQLVQSGAEVKKPGASVKVSCKASGYTFAGYYMYWVRQAPGQGLEWMGWINPDSGAPTYAQKFQGRVTMTRDTSISTAYMELSRLRSDDTAVYYCAREKIYYGSGNYYPSFDYWGQGTLVTVSSASTKGPSVFPLAPSSKSTSGGTAALGCLVKDYFPEPVTVSWNSGALTSGVHTFPAVLQSSGLYSLSSVVTVPSSSLGTQTYICNVNHKPSNTKVDKKVEPKSCDKTHTCPPCPAPEAAGAPSVFLFPPKPKDTLMISRTPEVTCVVVDVSHEDPEVKFNWYVDGVEVHNAKTKPREEQYNSTYRVVSVLTVLHQDWLNGKEYKCKVSNKALPAPIEKTISKAKGQPREPQVYTLPPSREEMTKNQVSLTCLVKGFYPSDIAVEWESNGQPENNYKTTPPVLDSDGSFFLYSKLTVDKSRWQQGNVFSCSVMHEALHNHYTQKSLSLSPGK light: DIQLTQSPSFLSASVGDRVTITCRASQGISSYLAWYQQKPGKAPKLLIYAASTLQSGVPSRFSGSGSGTEFTLTISSLQPEDFATYYCQQLFSYPWTFGQGTKVEIKRTVAAPSVFIFPPSDEQLKSGTASVVCLLNNFYPREAKVQWKVDNALQSGNSQESVTEQDSKDSTYSLSSTLTLSKADYEKHKVYACEVTHQGLSSPVTKSFNRGEC
0.779 nM | 4870 MFI | 0.175 nM | 2830 RLU | 2.67 nM | 15400 MFI | 15.6 nM | 93200 MFI | 1.15 nM | 20500 MFI | 0.136 nM | 0.0138 nM | 26900 RLU | 31700 RLU | 0.313 nM | 862 MFI | 1.36 nM | 6670 MFI | PR007070 (bispecific antibody, human IgG1, kappa, VH of PR005878 (PD-L1) - GS_5 - heavy chain of CD40 IgG PR006495; human IgG1 L234A/L235A/G237A; also called PD-L1×CD40) heavy: QVQLVESGGGVVQPGMSLRLSCAASGFTFSSYGMYWVRQAPGKGQEWVASIRYTGTEKHYADSVKGRFTISRDNSKNTLYLEMNSLRVEDTAVYYCAKNRALFGVIPDDSDIRGQGTMVTVSSGGGGSQVQLVQSGAEVKKPGASVKVSCKASGYTFAGYYMYWVRQAPGQGLEWMGWINPDSGAPTYAQKFQGRVTMTRDTSISTAYMELSRLRSDDTAVYYCAREKIYYGSGNYYPSFDYWGQGTLVTVSSASTKGPSVFPLAPSSKSTSGGTAALGCLVKDYFPEPVTVSWNSGALTSGVHTFPAVLQSSGLYSLSSVVTVPSSSLGTQTYICNVNHKPSNTKVDKKVEPKSCDKTHTCPPCPAPEAAGAPSVFLFPPKPKDTLMISRTPEVTCVVVDVSHEDPEVKFNWYVDGVEVHNAKTKPREEQYNSTYRVVSVLTVLHQDWLNGKEYKCKVSNKALPAPIEKTISKAKGQPREPQVYTLPPSREEMTKNQVSLTCLVKGFYPSDIAVEWESNGQPENNYKTTPPVLDSDGSFFLYSKLTVDKSRWQQGNVFSCSVMHEALHNHYTQKSLSLSPGK light: DIQLTQSPSFLSASVGDRVTITCRASQGISSYLAWYQQKPGKAPKLLIYAASTLQSGVPSRFSGSGSGTEFTLTISSLQPEDFATYYCQQLASYPWTFGQGTKVEIKRTVAAPSVFIFPPSDEQLKSGTASVVCLLNNFYPREAKVQWKVDNALQSGNSQESVTEQDSKDSTYSLSSTLTLSKADYEKHKVYACEVTHQGLSSPVTKSFNRGEC

The next lines start with the binder.

Binder | EC50 (cynomolgus monkey PD-L1) | Maximum MFI (cynomolgus monkey PD-L1) | EC50, Jurkat-NFAT-hPD1 reporter (human PD-L1 [1]) | Maximum (RLU), Jurkat-NFAT-hPD1 reporter (human PD-L1 [1]) | EC50 (human CD40 [2]) | Maximum MFI (human CD40 [2]) | EC50 (cynomolgus monkey CD40) | Maximum MFI (cynomolgus monkey CD40) | EC50 (human PD-L1 [3]) | Maximum MFI (human PD-L1 [3]) | EC50, HEK293-hCD40-NFκB reporter, + CHO-K1 (human CD40 [4]) | EC50, HEK293-hCD40-NFκB reporter, + CHO-K1/hPD-L1 (human CD40 [4]) | Maximum (RLU), HEK293-hCD40-NFκB reporter, + CHO-K1 (human CD40 [4]) | Maximum (RLU), HEK293-hCD40-NFκB reporter, + CHO-K1/hPD-L1 (human CD40 [4]) | EC50 (human PD-L1 [5]) | Maximum MFI (human PD-L1 [5]) | EC50 (human CD40 [6]) | Maximum MFI (human CD40 [6])
PR007151 (bispecific antibody, human IgG1, kappa, VH of PR005878 (PD-L1) - GS_5 - heavy chain of CD40 IgG PR006504; human IgG1 L234A/L235A/G237A; also called PD-L1×CD40) heavy: QVQLVESGGGVVQPGMSLRLSCAASGFTFSSYGMYWVRQAPGKGQEWVASIRYTGTEKHYADSVKGRFTISRDNSKNTLYLEMNSLRVEDTAVYYCAKNRALFGVIPDDSDIRGQGTMVTVSSGGGGSQVQLVQSGAEVKKPGASVKVSCKASGYTFAGYYMYWVRQAPGQGLEWMGWINPDSGAPTYAQKFQGRVTMTRDTSISTAYMELSRLRSDDTAVYYCAREKIYYGSGNYYPSFDYWGQGTLVTVSSASTKGPSVFPLAPSSKSTSGGTAALGCLVKDYFPEPVTVSWNSGALTSGVHTFPAVLQSSGLYSLSSVVTVPSSSLGTQTYICNVNHKPSNTKVDKKVEPKSCDKTHTCPPCPAPEAAGAPSVFLFPPKPKDTLMISRTPEVTCVVVDVSHEDPEVKFNWYVDGVEVHNAKTKPREEQYNSTYRVVSVLTVLHQDWLNGKEYKCKVSNKALPAPIEKTISKAKGQPREPQVYTLPPSREEMTKNQVSLTCLVKGFYPSDIAVEWESNGQPENNYKTTPPVLDSDGSFFLYSKLTVDKSRWQQGNVFSCSVMHEALHNHYTQKSLSLSPGK light: DIQLTQSPSFLSASVGDRVTITCRASQGISSYLAWYQQKPGKAPKLLIYAASTLQSGVPSRFSGSGSGTEFTLTISSLQPEDFATYYCQQLVSYPWTFGQGTKVEIKRTVAAPSVFIFPPSDEQLKSGTASVVCLLNNFYPREAKVQWKVDNALQSGNSQESVTEQDSKDSTYSLSSTLTLSKADYEKHKVYACEVTHQGLSSPVTKSFNRGEC | 0.754 nM | 4930 MFI | 0.35 nM | 4640 RLU | 2.36 nM | 16000 MFI | 3.76 nM | 75400 MFI | 1.14 nM | 20700 MFI | 0.425 nM | 0.0362 nM | 4000 RLU | 4900 RLU | 0.215 nM | 928 MFI | 1.3 nM | 6610 MFI
PR007268 (bispecific antibody, human IgG1, kappa, VH of PR006246 (PD-L1) - GS_5 - heavy chain of CD40 IgG PR006497; human IgG1 L234A/L235A/G237A; also called PD-L1×CD40) heavy: QVQLVESGGGVVQPGMSLRLSCAASGFDFSSYGMYWVRQAPGKGQEWVASIRYTGTEKHYADSVKGRFTISRDNSKNTLYLEMNSLRVEDTAVYYCAKNRAIFGVIPDDSDIRGQGTMVTVSSGGGGSQVQLVQSGAEVKKPGASVKVSCKASGYTFAGYYMYWVRQAPGQGLEWMGWINPDSGAPTYAQKFQGRVTMTRDTSISTAYMELSRLRSDDTAVYYCAREKIYYGSGNYYPSFDYWGQGTLVTVSSASTKGPSVFPLAPSSKSTSGGTAALGCLVKDYFPEPVTVSWNSGALTSGVHTFPAVLQSSGLYSLSSVVTVPSSSLGTQTYICNVNHKPSNTKVDKKVEPKSCDKTHTCPPCPAPEAAGAPSVFLFPPKPKDTLMISRTPEVTCVVVDVSHEDPEVKFNWYVDGVEVHNAKTKPREEQYNSTYRVVSVLTVLHQDWLNGKEYKCKVSNKALPAPIEKTISKAKGQPREPQVYTLPPSREEMTKNQVSLTCLVKGFYPSDIAVEWESNGQPENNYKTTPPVLDSDGSFFLYSKLTVDKSRWQQGNVFSCSVMHEALHNHYTQKSLSLSPGK light: DIQLTQSPSFLSASVGDRVTITCRASQGISSYLAWYQQKPGKAPKLLIYAASTLQSGVPSRFSGSGSGTEFTLTISSLQPEDFATYYCQQLYSYPWTFGQGTKVEIKRTVAAPSVFIFPPSDEQLKSGTASVVCLLNNFYPREAKVQWKVDNALQSGNSQESVTEQDSKDSTYSLSSTLTLSKADYEKHKVYACEVTHQGLSSPVTKSFNRGEC | 0.68 nM | 4550 MFI | 0.181 nM | 2810 RLU | 1.65 nM | 16300 MFI | 2.8 nM | 65700 MFI | 1.08 nM | 19600 MFI | 0.266 nM | 0.0571 nM | 156000 RLU | 286000 RLU | 0.42 nM | 869 MFI | 1.38 nM | 7430 MFI
